Data as given in paper PMC13545989.

B1: TRAK2/mScarlet fusion protein (wild type), O60296 F92A; M95A (protein)
chain: MSQSQNAIFTSPTGEENLMNSNHRDSESITDVCSNEDLPEVELVSLLEEQLPQYRLKVDTLFLYENQDWTQSPHQRQHASDALSPVLAEETARYAILGTDRVEQMTKTYNDIDMVTHLLAERDRDLELAARIGQALLKRNHVLSEQNESLEEQLGQAFDQVNQLQHELCKKDELLRIVSIASEESETDSSCSTPLRFNESFSLSQGLLQLEMLQEKLKELEEENMALRSKACHIKTETVTYEEKEQQLVSDCVKELRETNAQMSRMTEELSGKSDELIRYQEELSSLLSQIVDLQHKLKEHVIEKEELKLHLQASKDAQRQLTMELHELQDRNMECLGMLHESQEEIKELRSRSGPTAHLYFSQSYGAFTGESLAAEIEGTMRKKLSLDEESSLFKQKAQQKRVFDTVRIANDTRGRSISFPALLPIPGSNRSSVIMTAKPFESGLQQTEDKSLLNQGSSSEEVAGSSQKMGQPGPSGDSDLATALHRLSLRRQNYLSEKQFFAEEWQRKIQVLADQKEGVSGCVTPTESLASLCTTQSEITDLSSASCLRGFMPEKLQIVKPLEGSQTLYHWQQLAQPNLGTILDPRPGVITKGFTQLPGDAIYHISDLEEDEEEGITFQVQQPLEVEEKLSTSKPVTGIFLPPITSAGGPVTVATANPGKCLSCTNSTFTFTTCRILHPSDITQVTPSSGFPSLSCGSSGSSSSNTAVNSPALSYRLSIGESITNRRDSTTTFSSTMSLAKLLQERGISAKVYHSPISENPLQPLPKSLAIPSTPPNSPSHSPCPSPLPFEPRVHLSENFLASRPAETFLQEMYGLRPSRNPPDVGQLKMNLVDRLKRLGIARVVKNPGAQENGRCQEAEIGPQKPDSAVYLNSGSSLLGGLRRNQSLPVIMGSFAAPVCTSSPKMGVLKED
B2: TRAK1/mScarlet fusion protein (wild type), Q9UPV9 L92A; F95A (protein)
chain: MALVFQFGQPVRAQPLPGLCHGKLIRTNACDVCNSTDLPEVEIISLLEEQLPHYKLRADTIYGYDHDDWLHTPLISPDANIDLTTEQIEETAKYALLCAERVGQMTKTYNDIDAVTRLLEEKERDLELAARIGQSLLKKNKTLTERNELLEEQVEHIREEVSQLRHELSMKDELLQFYTSAAEESEPESVCSTPLKRNESSSSVQNYFHLDSLQKKLKDLEEENVVLRSEASQLKTETITYEEKEQQLVNDCVKELRDANVQIASISEELAKKTEDAARQQEEITHLLSQIVDLQKKAKACAVENEELVQHLGAAKDAQRQLTAELRELEDKYAECMEMLHEAQEELKNLRNKTMPNTTSRRYHSLGLFPMDSLAAEIEGTMRKELQLEEAESPDITHQKRVFETVRNINQVVKQRSLTPSPMNIPGSNQSSAMNSLLSSCVSTPRSSFYGSDIGNVVLDNKTNSIILETEAADLGNDERSKKPGTPGTPGSHDLETALRRLSLRRENYLSERRFFEEEQERKLQELAEKGELRSGSLTPTESIMSLGTHSRFSEFTGFSGMSFSSRSYLPEKLQIVKPLEGSATLHHWQQLAQPHLGGILDPRPGVVTKGFRTLDVDLDEVYCLNDFEEDDTGDHISLPRLATSTPVQHPETSAHHPGKCMSQTNSTFTFTTCRILHPSDELTRVTPSLNSAPTPACGSTSHLKSTPVATPCTPRRLSLAESFTNTRESTTTMSTSLGLVWLLKERGISAAVYDPQSWDRAGRGSLLHSYTPKMAVIPSTPPNSPMQTPTSSPPSFEFKCTSPPYDNFLASKPASSILREVREKNVRSSESQTDVSVSNLNLVDKVRRFGVAKVVNSGRAHVPTLTEEQGPLLCGPPGPAPALVPRGLVPEGLPLRCPTVTSAIGGLQLNSGIRRNRSFPTMVGSSMQMKAPVTLTSGILMGAKLSKQTSLR

Experiments:
[1] = target: TRAK1/mScarlet fusion protein (wild type) (UniProt Q9UPV9); test: co-IP; FLAG purification of Miro1/FP/FLAG/I3-01 synthetic cargo from hTERT RPE-1 cell lines co-expressing TRAK/mScarlet variants; immunoblot of the associated motor-adaptor components (kinesin, dynein, dynactin); also done after kinesin RNAi (fig. S4E)
kinesin-1, P33176 = target: T1, kinesin-1, P33176; test: FLAG immunoprecipitation of synthetic cargo, immunoblot quantification (anti-KIF5B); conditions: chain shown with the change; IP: flag; hTERT RPE-1 cells; n=4; parent: est. 1.0; read off a plot
T1 chain: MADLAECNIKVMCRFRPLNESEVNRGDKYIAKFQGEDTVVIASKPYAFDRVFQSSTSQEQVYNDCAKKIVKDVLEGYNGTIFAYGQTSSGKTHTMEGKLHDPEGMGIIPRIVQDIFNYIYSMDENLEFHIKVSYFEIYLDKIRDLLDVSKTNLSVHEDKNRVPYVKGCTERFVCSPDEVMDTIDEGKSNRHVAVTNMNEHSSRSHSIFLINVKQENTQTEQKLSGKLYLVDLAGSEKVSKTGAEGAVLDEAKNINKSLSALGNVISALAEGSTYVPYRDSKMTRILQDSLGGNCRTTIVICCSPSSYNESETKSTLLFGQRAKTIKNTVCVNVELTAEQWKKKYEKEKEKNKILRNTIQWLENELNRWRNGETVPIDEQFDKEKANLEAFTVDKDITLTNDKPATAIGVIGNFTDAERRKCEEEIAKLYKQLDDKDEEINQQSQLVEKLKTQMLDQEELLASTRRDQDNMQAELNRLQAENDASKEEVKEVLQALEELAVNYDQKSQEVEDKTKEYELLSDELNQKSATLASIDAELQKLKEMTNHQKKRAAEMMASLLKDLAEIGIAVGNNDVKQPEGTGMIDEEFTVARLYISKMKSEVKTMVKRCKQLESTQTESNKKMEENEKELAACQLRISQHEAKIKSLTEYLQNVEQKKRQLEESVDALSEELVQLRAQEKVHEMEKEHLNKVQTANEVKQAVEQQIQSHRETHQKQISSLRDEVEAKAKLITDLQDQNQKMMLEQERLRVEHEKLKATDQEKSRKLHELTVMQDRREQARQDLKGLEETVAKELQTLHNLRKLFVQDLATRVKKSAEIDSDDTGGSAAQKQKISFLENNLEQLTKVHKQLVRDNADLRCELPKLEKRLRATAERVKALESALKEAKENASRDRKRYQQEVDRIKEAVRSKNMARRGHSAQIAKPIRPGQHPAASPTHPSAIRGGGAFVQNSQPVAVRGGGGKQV

Row | Molecule | fold enrichment versus TRAK2-driven synthetic cargo [1] | ratio to parent (kinesin-1, P33176)
1 | kinesin-1 (from UniProt P33176 1-963) (natural protein) | 20 fold | –
2 | B1 | – | 0.46
3 | B2 | – | 0.02
